# B1: Lactoferrin: a transferrin; wound healing attributes, increases HA secretion (protein, UniProt P02788 20-710, looked up)
# Lactotransferrin: GRRRSVQWCAVSQPEATKCFQWQRNMRKVRGPPVSCIKRDSPIQCIQAIAENRADAVTLDGGFIYEAGLAPYKLRPVAAEVYGTERQPRTHYYAVAVVKKGGSFQLNELQGLKSCHTGLRRTAGWNVPIGTLRPFLNWTGPPEPIEAAVARFFSASCVPGADKGQFPNLCRLCAGTGENKCAFSSQEPYFSYSGAFKCLRDGAGDVAFIRESTVFEDLSDEAERDEYELLCPDNTRKPVDKFKDCHLARVPSHAVVARSVNGKEDAIWNLLRQAQEKFGKDKSPKFQLFGSPSGQKDLLFKDSAIGFSRVPPRIDSGLYLGSGYFTAIQNLRKSEEEVAARRARVVWCAVGEQELRKCNQWSGLSEGSVTCSSASTTEDCIALVLKGEADAMSLDGGYVYTAGKCGLVPVLAENYKSQQSSDPDPNCVDRPVEGYLAVAVVRRSDTSLTWNSVKGKKSCHTAVDRTAGWNIPMGLLFNQTGSCKFDEYFSQSCAPGSDPRSNLCALCIGDEQGENKCVPNSNERYYGYTGAFRCLAENAGDVAFVKDVTVLQNTDGNNNEAWAKDLKLADFALLCLDGKRKPVTEARSCHLAMAPNHAVVSRMDKVERLKQVLLHQQAKFGRNGSDCPDKFCLFQSETKNLLFNDNTECLARLHGKTTYEKYLGPQYVAGITNLKKCSTSPLLEACEFLRK
# Tests used:
# human dermal fibroblasts = conditions: cited from earlier work
# human fibroblast cells = experiment: HA production assessment, SDS-PAGE of fibroblast supernatants; format: cell-based; conditions: Experiment 2, primary adult human dermal fibroblasts, 72 hours, octapeptide 100 ug/mL, SymDecanox 250 ug/mL, others 500 ug/mL, FIG. 6
# Protocol: In a second experiment, HA production was also assessed with the test compounds below. Briefly, primary adult human dermal fibroblast cells were cultured until near confluent in 6 well plates. The cells were treated with the compounds and concentrations indicated to the right. After 72 hours, 100 μL of media were collected from each treatment condition and was concentrated in a SpeedVac concentrator to a final volume of ~10 uL.
# All 10 μL of the supernatants were loaded onto an acrylamide gel (NuPAGE 4-12% Bis-Tris Protein Gel) and run at 200V for 3 hours. The gel was stained to detect the presence of HA. Data is seen in FIG. 6. […] Lane 11 is the negative control, representing the untreated cells. This band represents the cells constitutive level of HA. Treating the cells with all the indicated compounds (lanes 1-10) produced an increased level of high molecular weight HA. […]
molecule,measurement,setting,value
B1,HA secretion,human dermal fibroblasts; literature (Saito et al. 2011),increases HA secretion
same,Proliferation of fibroblasts,human dermal fibroblasts; literature (Saito et al. 2011; Takayama 2012),promotes proliferation of fibroblasts
same,Level of high molecular weight HA (band on gel),human fibroblast cells,secrete high molecular weight HA

# Source: patent US12721801B2, “Compositions and methods relating to stimulation of hyaluronic acid” (Alastin Skincare, Inc., priority 2020, dated 2026)
